According to IntAct's records for PubMed 15252009:

B1: Formin-binding protein 1 (Homo sapiens), Q96RU3 (parent)
chain: MSWGTELWDQFDNLEKHTQWGIDILEKYIKFVKERTEIELSYAKQLRNLSKKYQPKKNSKEEEEYKYTSCKAFISNLNEMNDYAGQHEVISENMASQIIVDLARYVQELKQERKSNFHDGRKAQQHIETCWKQLESSKRRFERDCKEADRAQQYFEKMDADINVTKADVEKARQQAQIRHQMAEDSKADYSSILQKFNHEQHEYYHTHIPNIFQKIQEMEERRIVRMGESMKTYAEVDRQVIPIIGKCLDGIVKAAESIDQKNDSQLVIEAYKSGFEPPGDIEFEDYTQPMKRTVSDNSLSNSRGEGKPDLKFGGKSKGKLWPFIKKNKLMSLLTSPHQPPPPPPASASPSAVPNGPQSPKQQKEPLSHRFNEFMTSKPKIHCFRSLKRGLSLKLGATPEDFSNLPPEQRRKKLQQKVDELNKEIQKEMDQRDAITKMKDVYLKNPQMGDPASLDHKLAEVSQNIEKLRVETQKFEAWLAEVEGRLPARSEQARRQSGLYDSQNPPTVNNCAQDRESPDGSYTEEQSQESEMKVLATDFDDEFDDEEPLPAIGTCKALYTFEGQNEGTISVVEGETLYVIEEDKGDGWTRIRRNEDEEGYVPTSYVEVCLDKNAKDS
partner: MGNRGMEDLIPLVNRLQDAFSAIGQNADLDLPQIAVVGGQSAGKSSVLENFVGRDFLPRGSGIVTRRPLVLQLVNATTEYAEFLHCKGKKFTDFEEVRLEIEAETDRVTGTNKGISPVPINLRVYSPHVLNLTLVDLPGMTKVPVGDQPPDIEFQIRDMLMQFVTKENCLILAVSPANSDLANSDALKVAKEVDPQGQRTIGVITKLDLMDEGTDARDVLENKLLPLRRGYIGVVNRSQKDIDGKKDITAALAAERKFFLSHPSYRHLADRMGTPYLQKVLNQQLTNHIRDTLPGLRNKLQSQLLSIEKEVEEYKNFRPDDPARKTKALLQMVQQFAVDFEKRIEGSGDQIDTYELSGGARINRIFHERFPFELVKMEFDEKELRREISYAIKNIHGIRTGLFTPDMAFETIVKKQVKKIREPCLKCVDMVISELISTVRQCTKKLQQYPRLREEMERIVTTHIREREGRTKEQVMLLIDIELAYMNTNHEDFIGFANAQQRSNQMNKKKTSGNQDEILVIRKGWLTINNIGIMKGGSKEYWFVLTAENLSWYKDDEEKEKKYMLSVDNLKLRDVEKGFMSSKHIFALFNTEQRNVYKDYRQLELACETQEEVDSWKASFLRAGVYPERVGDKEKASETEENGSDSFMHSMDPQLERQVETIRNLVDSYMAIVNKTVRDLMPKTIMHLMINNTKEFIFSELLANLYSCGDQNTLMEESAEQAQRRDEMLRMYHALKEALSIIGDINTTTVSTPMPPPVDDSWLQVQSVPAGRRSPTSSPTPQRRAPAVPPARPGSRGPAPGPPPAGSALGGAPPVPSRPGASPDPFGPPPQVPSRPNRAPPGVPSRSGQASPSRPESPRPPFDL
B2: Formin-binding protein 1 (Homo sapiens), Q96RU3 (parent)
chain: B1 chain
partner: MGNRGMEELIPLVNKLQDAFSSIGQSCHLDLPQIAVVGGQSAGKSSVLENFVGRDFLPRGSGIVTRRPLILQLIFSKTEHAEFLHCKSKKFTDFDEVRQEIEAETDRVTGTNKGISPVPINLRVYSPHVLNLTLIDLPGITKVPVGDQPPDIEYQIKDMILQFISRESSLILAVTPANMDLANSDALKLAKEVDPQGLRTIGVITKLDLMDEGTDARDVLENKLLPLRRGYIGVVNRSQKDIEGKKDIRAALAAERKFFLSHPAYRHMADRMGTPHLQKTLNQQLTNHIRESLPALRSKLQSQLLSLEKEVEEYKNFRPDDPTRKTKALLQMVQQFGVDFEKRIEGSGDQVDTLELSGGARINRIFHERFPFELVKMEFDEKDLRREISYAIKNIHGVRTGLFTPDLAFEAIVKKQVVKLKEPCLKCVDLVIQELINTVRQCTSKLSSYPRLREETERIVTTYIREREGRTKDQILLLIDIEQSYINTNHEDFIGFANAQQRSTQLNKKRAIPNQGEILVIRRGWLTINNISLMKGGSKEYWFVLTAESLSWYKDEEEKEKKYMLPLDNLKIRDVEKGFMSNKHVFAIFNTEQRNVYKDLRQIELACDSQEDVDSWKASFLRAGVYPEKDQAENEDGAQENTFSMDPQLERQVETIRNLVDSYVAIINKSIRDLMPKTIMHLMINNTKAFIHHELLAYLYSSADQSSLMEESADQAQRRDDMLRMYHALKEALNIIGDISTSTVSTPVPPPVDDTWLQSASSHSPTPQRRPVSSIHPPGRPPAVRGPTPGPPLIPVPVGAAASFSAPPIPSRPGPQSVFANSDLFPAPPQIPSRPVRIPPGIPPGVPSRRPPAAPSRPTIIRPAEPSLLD
B3: Formin-binding protein 1 (Homo sapiens), Q96RU3 (parent)
chain: B1 chain
partner: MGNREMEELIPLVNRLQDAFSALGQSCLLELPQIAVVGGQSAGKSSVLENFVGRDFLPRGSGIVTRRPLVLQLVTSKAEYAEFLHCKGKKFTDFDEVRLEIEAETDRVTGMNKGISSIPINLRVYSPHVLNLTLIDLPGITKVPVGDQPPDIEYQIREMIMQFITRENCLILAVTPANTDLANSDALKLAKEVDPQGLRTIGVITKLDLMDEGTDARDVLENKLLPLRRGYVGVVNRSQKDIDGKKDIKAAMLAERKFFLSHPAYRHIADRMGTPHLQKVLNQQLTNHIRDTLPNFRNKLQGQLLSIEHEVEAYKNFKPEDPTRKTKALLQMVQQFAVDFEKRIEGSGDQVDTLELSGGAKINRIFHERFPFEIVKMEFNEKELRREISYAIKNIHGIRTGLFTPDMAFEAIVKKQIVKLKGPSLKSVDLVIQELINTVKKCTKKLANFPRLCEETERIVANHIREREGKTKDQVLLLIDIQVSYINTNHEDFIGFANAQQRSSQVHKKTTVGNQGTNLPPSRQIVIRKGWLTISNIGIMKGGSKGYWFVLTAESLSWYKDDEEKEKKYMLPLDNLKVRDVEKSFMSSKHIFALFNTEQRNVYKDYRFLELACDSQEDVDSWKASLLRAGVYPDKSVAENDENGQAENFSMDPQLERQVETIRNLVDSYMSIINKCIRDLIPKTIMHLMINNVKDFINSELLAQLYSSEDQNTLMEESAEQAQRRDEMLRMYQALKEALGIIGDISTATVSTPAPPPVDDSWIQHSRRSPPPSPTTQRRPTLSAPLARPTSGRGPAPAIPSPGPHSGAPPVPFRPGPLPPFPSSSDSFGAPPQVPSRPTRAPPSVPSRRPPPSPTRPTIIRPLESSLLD

Variants of: B1
Conditions: with dyn1_human DNM1, Q05193

effect of a mutation on the interaction | Variant
decreasing interaction | P602L

Variants of: B2
Conditions: with dyn2_human DNM2, P50570

effect of a mutation on the interaction | Variant
decreasing interaction | P602L

Variants of: B3
Conditions: with dyn3_human DNM3, Q9UQ16

effect of a mutation on the interaction | Variant
decreasing interaction | P602L
